Reference: patent publication US20210347914A1 (BANYAN BIOMARKERS, published 2021)

Experiments:
[1] = target: T1, Polyhistidine-tagged recombinant human GFAP expressed from E. coli (human, UniProt P14136 1-432); assay: BLI (Octet QKe); His-tagged GFAP on anti-Penta-HIS sensor, antibody in solution
T1 construct: also called His-tagged GFAP; not shown: polyhistidine tag
Protocol: (§1) The rates of association (kₒₙ) and dissociation (koff) of the anti-GFAP antibodies were determined by bio-layer interferometry using an Octet QK^e instrument according to the manufacturer's instructions (ForteBio). See Tobias et al., Biomolecular Binding Kinetic Assays in the Octet Platform, Application Note 14, ForteBio, Div. of Pall Life Sciences, 2013. Polyhistidine-tagged recombinant human GFAP expressed from E. coli was used as the antigen. The antigen was bound at a concentration of 8.3 μg/ml to an anti-Penta-HIS(HIS1K) capture biosensor containing an anti-histidine antibody (ForteBio) for use with the Octet QK^e instrument.

[2] = target: T2, Polyhistidine-tagged recombinant human UCH-L1 expressed from E. coli (human, UniProt P09936 1-223, limits assumed); assay: BLI (Octet QKe); His-tagged UCH-L1 on anti-Penta-HIS sensor, antibody in solution
T2 construct: also called UCH-L1-His; not shown: polyhistidine tag
Protocol: as §1, with “anti-UCH-L1” for “anti-GFAP”, “UCH-L1” for “GFAP”, “[…]” for “μg/ml”

T2 sequence (P09936 whole entry): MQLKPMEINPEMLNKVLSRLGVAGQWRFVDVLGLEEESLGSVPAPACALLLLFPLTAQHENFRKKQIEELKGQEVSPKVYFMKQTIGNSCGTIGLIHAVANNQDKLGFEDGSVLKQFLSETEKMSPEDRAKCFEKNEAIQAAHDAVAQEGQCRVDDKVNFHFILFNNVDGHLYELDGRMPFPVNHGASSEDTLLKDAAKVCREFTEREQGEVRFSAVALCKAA
T1 sequence (P14136 whole entry): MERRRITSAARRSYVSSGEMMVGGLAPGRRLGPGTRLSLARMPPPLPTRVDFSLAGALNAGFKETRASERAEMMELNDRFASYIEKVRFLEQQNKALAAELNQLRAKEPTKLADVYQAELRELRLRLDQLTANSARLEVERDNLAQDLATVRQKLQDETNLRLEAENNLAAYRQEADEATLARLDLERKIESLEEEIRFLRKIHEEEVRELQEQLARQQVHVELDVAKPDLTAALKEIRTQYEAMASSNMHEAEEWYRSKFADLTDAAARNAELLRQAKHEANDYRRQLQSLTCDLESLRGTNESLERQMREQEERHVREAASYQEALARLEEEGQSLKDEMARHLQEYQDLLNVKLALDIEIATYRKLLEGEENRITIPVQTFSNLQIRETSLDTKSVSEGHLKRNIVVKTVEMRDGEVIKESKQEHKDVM

Binder	Kd [1] [nM]	koff [1] [s⁻¹]	kon [1] [M⁻¹ s⁻¹]	Kd [2] [nM]	koff [2] [s⁻¹]	kon [2] [M⁻¹ s⁻¹]
GFAP-10 (antibody, V domains shown, also called mouse anti-GFAP antibody GFAP-10) VH: EVKLVESGGGLVKPGGSLKLSCAASGFTFSYYAMSWVRQTPEKRLEWVASISSGGTTYHPDSVKGRFTISRDNARNILYLQMSSLRSEDTAMYYCARGGHWYFDVWGAGTTVTVSS VL: QIVLTQSPAIMSASPGEKVTMTCSASSSVSYMHWYQQKSGTSPKRWIYDTSKLASGVPARFSGSGSGTSYSLTISSMEAEDAATYYCQQWSTNPLTFGAGTKLDLK	< 0.001	1e-07	53300	–	–	–
GFAP-2 (antibody, V domains shown, also called mouse anti-GFAP antibody GFAP-2) VH: DVQLVESGGGLVQPGGSRKLSCAASGFTFSSFGMHWVRQAPEKGLEWVAYISSGSSIIYYADTVKGRFTISRDNPKNTLFLQMTSLRSEDTAMYYCTGSDWGSFAYWGQGTLVTVSA VL: DVVMTQTPLSLPVSLGDQASISCRSSQSLVYSNGNTYLHWYLQKPGQSPKLLIYKVSNRFFGVPDRFSGSGSGTDFTLKISRVEAEDLGVYFCSQSTHVPYTFGGGTKLEIK	0.0557	3.3e-05	593000	–	–	–
UCH-L1-2 (antibody, V domains shown, also called mouse anti-UCH-L1 antibody UCH-L1-2) VH: EVMLVESGGGLVKPGGSLKLSCAASGFIFSSHAMSWIRQIPEKRLEWVATISSGGSNTYYPDSVKGRFTISRDNAKNILYLQMSSLRSEDTAIYYCTRHGEVRRGYYFDYWGQGTTLTVSS VL: DIQMTQTPSSLSASLGDRVTISCSASQGITNYLNWYQQKPDGTVKLLIYYTSSLHSGVPSRFSGSGSGTDYSLTISNLEPEDFATYYCQHYSNLPWTFGGGTKLEIK	–	–	–	0.207	3.01e-05	146000
GFAP-7 (antibody, V domains shown, Same variable domains as GFAP-8; also called mouse anti-GFAP antibody GFAP-7) VH: EVQLLQSGTVLARPGASVKMSCKASGYSFTSYWMHWIKQRPGQGLEWIGAIHPGNRDTSYNQKFKDKAKLTAVTSASTAYMELSSLTNEDSAVYFCTREDYWGQGTTLTVSS VL: not shown	0.856	5.8e-05	67800	–	–	–
GFAP-8 (antibody, V domains shown, Same variable domains as GFAP-7; also called mouse anti-GFAP antibody GFAP-8) VH: EVQLLQSGTVLARPGASVKMSCKASGYSFTSYWMHWIKQRPGQGLEWIGAIHPGNRDTSYNQKFKDKAKLTAVTSASTAYMELSSLTNEDSAVYFCTREDYWGQGTTLTVSS VL: not shown	1.11	0.000133	120000	–	–	–
GFAP-4 (antibody, V domains shown, also called mouse anti-GFAP antibody GFAP-4) VH: EVQLLQSGTVLARPGASVKMSCKASGYSFTSYWMHWIKQRPGQGLEWIGAIHPGNRDTSYNQKFKDKAKLTAVTSASTAYMELSSLTNEDSAVYFCTREDYWGQGTTLTVSS VL: not shown	2.93	0.000158	53700	–	–	–
UCH-L1-4 (antibody, V domains shown, also called mouse anti-UCH-L1 antibody UCH-L1-4) VH: AVQLQQSGPELVKPGASVKISCKTSGDTFTEHFMNWVKQSHGESLEWIGIINPYTDGTNYDQKFKDKATLTVDKSSSTAYMELRSLTSEDSAVYYCARWGGDGEGYWGQGTTLTVSS VL: DIVMTQAAPSVSVTPGESVSISCRSSKSLLHSNGNTYLYWFLKRPGQSPQLLIYRMSNLASGVPDRVSGSGSGTAFTLRISRVEAEDVGIYYCMQHLEYPLTFGAGTKLELK	–	–	–	0.0369	1.4e-05	378000
UCH-L1-5 (antibody, V domains shown, also called mouse anti-UCH-L1 antibody UCH-L1-5; HRP-labeled anti-UCH-L1 detection antibody) VH: EVKLVESGGGSVQPGGSLSLSCAASGFTFTEYYMSWVRQFPGKALEWLAFIRNRAHGYTTEYSASVKGRFTISRDNSQSILYLQMNALRTEDSATYYCASSYGAPFAYWGQGTLVSVSA VL: DIVMTQAAPSVPVTPGESVSISCRSSKSLLHSDGNTYLYWFLQRPGQSPQLLIYRMSNLASGVPDRFSGSGSGTAFTLRISRVEAEDVGVYYCMQHLEYPLTFGAGTKLELK	–	–	–	< 0.001	1e-07	459000
GFAP-19 (antibody, V domains shown, also called mouse anti-GFAP antibody GFAP-19) VH: EVQLVESGGGLVKPGGSPKLSCAASGFAFSSYDMSWVRQTPEKRLEWVAYISSGGGSTYYPDTMKGRFTISRDNAKNTLYLQMSSLKSEDTAMYYCARHYGTYLYYLDYWGQGTTLTVSS VL: DIVLTQSPATLSVTPGDRVSLSCRASQNISDFLHWYQQKSHESPRLLIKYASQSISGIPSRFSGSGSGSDFTLSINSVEPEDVGVYYCQNGHSFPPTFGGGTKLEIK	0.423	6.4e-05	151000	–	–	–
GFAP-6 (antibody, V domains shown, also called mouse anti-GFAP antibody GFAP-6; HRP-labeled anti-GFAP antibody) VH: EVQLQQSGAEFVKPGASVKLSCTASGFNIKDTDMHWVRQRPEQGLESIGLIDPAIGNTKYDPKFQGKATITADTSSNAAYLQLSSLTSEDTAVYYCARSDRYLAWFAYWGQGTLVTVSA VL: DIVMTQSPATLSVTPGDRVSLSCRASQSISDFLHWYQQKSHGSPRLLIKYSSQSISGIPSRFSGSGSGSDFTLSINSVEPEDVGVYYCQNGHTFPYTFGGGTKLEIK	1.07	0.000124	116000	–	–	–
GFAP-3 (antibody, V domains shown, also called mouse anti-GFAP antibody GFAP-3) VH: EVKLEESGGGLVQPGGSMKLSCVASGFTFTNYWMSWVRQSPEKGLEWVAQIRLKSDNYATHYAESVKGRFTISRDDSKSSVYLQMNNLRAEDTGIYYCTGGEFLSWFAYWGQGTLVTVSA VL: DIVMSQSPSSLAVSAGEKVTMSCKSSQSLFNSRTRKNYLAWYQQKPGQSPKLLIYWASTRESGVPDRFTGSGSGTDFTLTISSVQAEDLAVYYCKQSYYLYTFGSGTKLEIK	12	0.000698	58000	–	–	–
GFAP-9 (antibody, V domains shown, also called mouse anti-GFAP antibody GFAP-9) VH: DVQLQESGPGLVKPSQSLSLTCSVTGYSITSGFYWSWIRQFPGNKLEWMGYISYDGSNNYNPSLKNRISITRDTSKNQFFLKLNSVTTEDTATYYCARAYGYDGAWFAYWGQGTLVTVSA VL: DIVMTQSQKFMSTSVGDRVSITCKASQNVRTAVAWYQQKPGQSPKALIYLASNRHTGVPDRFTGSGSGTDFTLTISNVQSEDLADYFCLQHWNNPYTFGGGTKLEIK	18	0.000701	39000	–	–	–
UCH-L1-1 (antibody, V domains shown, also called mouse anti-UCH-L1 antibody UCH-L1-1) VH: QVQLQQPGSELVRPGASVKLSCKASGYTFTSYWMHWVKQRPGQGLEWIGNIYPGSGSTNYDEKFKSKATLTVDTSSSTAYMQLSSLTSEDSAVYYCTREDYWGQGTTLTVSS VL: DVLMTQTPLSLPVSLGDQASISCRSSQNIVHSNGNTYLEWYLQKPGQSPKLLIYKVSNRFSGVPDRFSGSGSGTDFTLKISRVEAEDLGVYYCFQGSHVPFTFGSGTKLEIK	–	–	–	< 0.001	< 1e-07	58800
GFAP-1 (antibody, V domains shown, also called mouse anti-GFAP antibody GFAP-1) VH: EVHLQQSGTVLARPGASVKMSCKASGYSFTSYWMHWVKQRPGQGLEWIGAFYPENSDTNYNQKFKGKARLTAVTSANTAYMELNSLTNEDSAVYYCTRPLLFSAYFDFWGQGTTLTVSS VL: DVLMTQTPLSLPVSLGDQASISCRSSQSIVHSYGNTYLEWYLQKPGLSPKLLIYKVSNRFSGVPDRFSGSGSGTDFTLTISRVEAEDLGVYYCFQGSHVPYTFGGGTKLEIK	0.0107	1.7e-06	162000	–	–	–
UCH-L1-3 (antibody, V domains shown, also called mouse anti-UCH-L1 antibody UCH-L1-3) VH: QVQLQQPGSELVRPGASVKLSCRASGYTFTSYWIHWVKQRHGQGLEWIGNIYPGSGITNYDEKFKTKGTLTVDTSSSTVYMHLISLTSEDSAVYYCTREDYWGQGTTLTVSS VL: DVLMTQTPLSLPVSLGDQASISCRSSQSIVHSNGNTYLEWYLQKPGQSPKLLIYKVSNRFSGVPDRFSGSGSGTDFTLKISGVETEDLGVYYCFQGSHVPFTFGGGTKLEIK	–	–	–	0.367	1.34e-05	36400
GFAP-5 (antibody, V domains shown, also called mouse anti-GFAP antibody GFAP-5) VH: EVQLVESGGGLVKPGGSLKLSCAASGFTFSAYGMHWVRQAPEKGLEWIAYISSGSSTIYYADTVKGRFTISRDNAKNTLFLQMTSLRSEDTAMYYCASSYALDYWGQGTSVTVSS VL: DVVMTQTPLSLPVSLGDQASISCRSSQSLVYSNGNTYLHWYLQKPGQSPKLLIYKVSNRFSGVPDRFSGSGSGTDFTLKISRVEAEDLGVYFCSQSTHVPYTFGSGTKLEIK	5.36	0.000107	20000	–	–	–
UCH-L1-7 (antibody, V domains shown, also called mouse anti-UCH-L1 antibody UCH-L1-7) VH: EVQLQQSGPELVKPGASVKISCKTSGYTFTEYTMHWVKQSHGKSLDWIGGINPNNGRTSYNQKFKGKATLTVDKSSSTAYMELRSLTSEDSAVYYCARRLGRGFYFDYWGQGTTLTVSS VL: DIVLTQSPASLAVSLGQRATISCRASESVDSYGNNLMHWYQQKPGQPPKLLIYLSSNLESGIPARFSGRGSRTDFTLTINPVEADDVATYYCQQSNGDPYTFGGGTKLEIK	–	–	–	0.0187	2.5e-06	133000
UCH-L1-8 (antibody, V domains shown, also called mouse anti-UCH-L1 antibody UCH-L1-8) VH: EVQLQQSGPDLVKPGTSVKISCKTSGYTFTEYTMHWVKQSHGRSLEWIGGLNPNNGRTSYNQKFKGKATLTVDKSSSIAYMELRSLTSEDSAVYYCARRLGRGFYFDYWGQGTTLTVSS VL: DIVLTQSPASLAVSLGQRATISCRASESVDSYGNNLMHWYQQKPGQSPKLLIYRASNLESGIPGRFSGRGSRTDFTLTINPVEADDVATYYCQQSNGDPYTFGGGTKLEIK	–	–	–	0.0474	6.7e-06	141000
UCH-L1-6 (antibody, V domains shown, also called mouse anti-UCH-L1 antibody UCH-L1-6) VH: EVQLQQSGPELVKPGASVKISCKTSGYTFTEYTMHWVKQSHGKSLDWIGGINPNNGRTSYNQKFKGKATLTVDKSSSTAYMDFRSLTSEDSAVYYCARRLGRGFYFDYWGQGTTLTVSS VL: DIVLTQSPASLAVSLGQRATISCRASESVESYGNNLIHWYQQKLGQPPKLLIYLSSNLEPGIPARFSGRGSRTDFTLTINPVEADDVATYYCQQSNGDPYTFGGGTKLEIR	–	–	–	< 0.001	1e-07	145000
